In paper PMC10720262 (2023):

B1: CL-512296 (antibody, V domains shown)
VH: QVQLVESGGGVVQPGRSLRLSCAASGFTFSNYGMHWVRQAPGKGLEWVAVIWYDGSKKFYADSVMGRFTISRDNSKNTLVLQMNSLGAEDTAVYYCARDRGYSGYVFDYWGQGTLVTVSS
VL: QSALTQPASVSGSPGQSIAISCTGTSSDVGGYNFVSWYRHHPGKAPKLMIYDVSNRPSGVSNRFSGSKSGNTASLTISGLQAEDEADYYCCSYAGSCSVFGGGTKLTVL
modifications: peptides N-terminally acetylated and C-terminally amidated
B2: CL-509370 (antibody, V domains shown)
VH: QVQLVESGGGVVQPGRSLRLSCAASGFTFSSYGMHWVRQAPGKGLEWVAVIWYDGSNKFYADSVKGHFTISRDNSKNTLYLQMNSLRAEDTAVYYCARDGRDLRGTGPYFDPWGQGTLVTVSS
VL: EIVMTQSPATLSVSPGERAILSCRASQSVSSNLAWYQQKPGQAPRLLIYGASIRATGIPARFRGSGSGTEFTLTISILQSEDFAVYYCQQYNNWITFGQGTRLEIK
modifications: peptides N-terminally acetylated and C-terminally amidated
B3: CL-510416 (antibody, V domains shown)
VH: QVQLVESGGGVVQPGRSLRLSCEASGFTFSNYGMHWVRQGPGKGLEWVALMWYDGSNKYYSDSVKGRFTISRDNSKSTLYLQMNSLRAEDTAVYYCARPITGNTHSKYTMDVWGQGTTVTVSS
VL: DIQMTQSPSTLSASVGDRVTITCRASQSISSWLAWYQQKPGKAPKLLIYKASTLESGVPSRFSGSGSGTEFTLTISSLQPDDFATYFCQQYNSYWTFGQGTKVEIK
modifications: peptides N-terminally acetylated and C-terminally amidated
B4: CL-512870 (antibody, V domains shown)
VH: QVQLVESGGGVVQPGRSLRLSCEASGFTFSHYGMHWVRQAPGRGLEWVAIIWYDGSNTYYRDSVKGRFTISRDNSKDTLFLQMNSLRPDDTAVYYCARALYYDSGSLFDFWGQGTLVTVSS
VL: DIQMTQSPSTLSASVGDRVTITCRASQSISSWLAWYQQKPGKAPKLLIYKASSLETGVPSRFSGSGFGTEFTLSISSLQPDDFATYYCLQYNIYWTFGQGTKVEIK
modifications: peptides N-terminally acetylated and C-terminally amidated
B5: CL-531969 (antibody, V domains shown)
VH: QVQLVESGGGVVQPGRSLRLSCAASGFTFSSSGMHWVRQAPGMGLEWVAIIWYDGSNKFYADSVKGRFTISRDNSKNTLYLQMNSLRAEDTAVYYCARAYVSGNYGDNYGMDVWGQGTTVTVSS
VL: DIQMTQSPSTLSASVGDRVTITCRASQSISSWLAWFQQKPGKAPKLLIYKASSLESGVPSRFSGSGSGTEFTLTINSLQPDDFATYFCQQYNYYWTFGQGTKVEIK
modifications: peptides N-terminally acetylated and C-terminally amidated
B6: CL-512564 (antibody, V domains shown)
VH: QVQLVESGGGVVQPGRSLRLSCAASGFTFSNSGMHWVRQAPGKGLEWVAIIWYDGSHKFYADSVKGRFTISRDNSKNTLYLQMNSLRIEDTAMYYCVRSYNWNYPVRGDYKYGMDVWGQGTTVTVSS
VL: DIQMTQSPSTLSASVGDRVTITCRASQSISSWLAWFQQKPGKAPNLLIYMASSLQSGVPSRFSGSGSGTEFTLTISSLQPDDFATYYCQQFNTYWTFGQGTKVEIK
modifications: peptides N-terminally acetylated and C-terminally amidated
B7: CL-459404 (antibody, V domains shown)
VH: QVQLVASGGGVVQPGRSLRLSCAASGFTFSNYGMHWVRQAPGKGLEWVAIIWYDGSKKYYSDSVKGRFTISRDNSKNTLNLQMNSLRAEDTAVYYCARAYGSGSYSDDYYGMDVWGQGTTVTVSS
VL: DIQMTQSPSTLSASVGDRVTITCRASQSISPWLAWFQQKPGKAPKLLIYKASNLESGVPSRFSGSGSGTEFTLTISSLQPDDFATYYCQQYYTYWTFGQGTKVEIK
modifications: peptides N-terminally acetylated and C-terminally amidated
B8: CL-440582 (antibody, V domains shown)
VH: QVQLVESGGGVVQPGRSLRLSCAASGFTLNNYGIHWVRQAPGKGLEWLSLIWYDGSNKFYADSVKGRFTVSRDNSQNTVSLHMSSLSVDDTAVYYCARPGIGVPGDKYTMDVWGQGTTVTVSS
VL: DIQMTQSPSTLSASVGDRVTITCRASQTISAWLAWYQQKLGKAPKILIYKASILESGVPSRFSGSGSGTEFTLTINSLQPDDFATYYCQQYNYDWTFGQGTKVEIN
modifications: peptides N-terminally acetylated and C-terminally amidated
B9: CL-531912 (antibody, V domains shown)
VH: LVQLVESGGGVVQPGRSLRLSCAASGFTFSSSGMHWVRQAPGKGLEWVAIIWYDGSNKFYADSVKGRFTISRDNSKNTLYLQMNSLRAEDTAVYYCARAYVSGSHGDKYGMDVWGQGTTVTVSS
VL: DIQMTQSPSTLSASVGDRVTITCRASQSISSWLAWFQQKPGKAPKLLIYKASSLESGVPSRFSGSGSGTEFTLTINSLQPDDFATYFCQQYNNYWTFGQGTKVEIK
modifications: peptides N-terminally acetylated and C-terminally amidated
B10: CL-513274 (antibody, V domains shown)
VH: QVQLVESGGGVVQPGRSLRVSCAASGFTFSNYGMYWVRQAPGKGLEWVALIWHDGSNKFYEDSVKGRFTISRDNSKNTLYLQMNSLRAEDTAVYYCARAGYFQGSGSFLDYWGQGTLVTVSS
VL: DIQMTQSPSTLSASVGDRVTITCRASQSISTWLAWYQQKPGKAPKLLIYKASSLESGVPSRFSGSGSGTEFTLTISSLQPDDFATYFCQQYSSYWTFGQGTKVEIK
modifications: peptides N-terminally acetylated and C-terminally amidated
B11: CL-513462 (antibody, V domains shown)
VH: QVQLVESGGGVVQPGRSLRVSCAASGFTFSNYGMYWVRQAPGKGLEWVAVIWHDGTNKFYEDSVKGRFTISRDNSKNTLYLQMNSLRAEDTAVYYCARAGYFQGSGSFLDYWGQGTLVTVSS
VL: DIQMTQSPSTLSASVGDRVTITCRASQSISSWLAWYQQKPGKAPKLLIYKASSLESGVPSRFSGSGSGTEFTLTISSLQPDDFATYFCQQYSSYWTFGQGTKVEIK
modifications: peptides N-terminally acetylated and C-terminally amidated
B12: CL-513701 (antibody, V domains shown)
VH: QVQLVESGGGVVQTGRSLRLSCTASGFIFSNYGMYWVRQAPGKGLEWVALIWYDGSNKYYVDSVKGRFTISRDNSKNTLYLQMNSLRAEDTAVYYCARAGKYSGSGSYLDSWGQGTLVTVSS
VL: DIQMTQSPSSVSASVGDRVTITCRASQGISSWLAWYQQKPGKAPKLLIYTASSLQSGVPSRFSGSGSGTDFTLTISSLQPDDFATYFCQQYSRYWTFGQGTKVEIK
modifications: peptides N-terminally acetylated and C-terminally amidated
B13: Ky15.10 (antibody, V domains shown)
VH: QVQLVESGGGVVQPGRSLRLSCAASGFTFSNSGMHWVRQVPGKGLEWVAIIWYDGSNKYYADSVKGRFSVSRDNSENTLYLQMSNLRAEDTAVYYCVRAYFDSENLYDYYGMDVWGQGTTVTVSS
VL: DIQMTQSPSTLSASVGDRVTITCRASQSISRWLAWFQKKPGKAPKLLIYTASNLESGVPSRFSGSGSGTEFTLTISSLQPDDFATYYCQQYYNYWTFGQGTKVEVK
modifications: peptides N-terminally acetylated and C-terminally amidated
B14: CL-444639 (antibody, V domains shown)
VH: QVQLVESGGGVVQPARSLRLSCAASGFTFSSYGMHWVRQAPGKGLEWVAVIWYDGSNKYYADSVKGRFTISRDNSKNTLYLQMNSLRAEDTAVYYCAKVGDFYGSGSYPHYYGMDVWGQGTTVTVSS
VL: not shown
modifications: peptides N-terminally acetylated and C-terminally amidated
B15: CL-512206 (antibody, V domains shown)
VH: QVQLVESGGGVVQPGRSLRLSCAASGFTFSHYGMHWVRQAPGKGLEWVAVIWYDGNNKFYADSVKGRFTISRDNSNNTLYLQMNSLRAEDTAVYHCVRERTGATSRGFDFWGQGTLVTVSS
VL: QSVLTQPPSVSAAPGQKVTISCSGSDSNIEKYYVSWYQQLPGSAPKLLIYDNNKRPSGIPDRFSGSKSGTSATLGITGLQTGDEAVYYCGTWDSSLSTGVFGGGTKLTVL
modifications: peptides N-terminally acetylated and C-terminally amidated
B16: CL-445635 (antibody, V domains shown)
VH: QVQLVESGGAVVQPGTSLRLSCAASGFTFSNYGMHWVRQAPGKGLQWVALIWYNGNNKFYAESVEGRFIISRDNSKNILFLQMNSLSAEDTAVYYCARAFYYDSGNYLDYWGPGSLVTVSS
VL: DIQMTQSPSSVSASVGDRVTITCRARQDISSRLAWYQQKPGKAPKILIYGASSLQSGVPSRFSASGSGTDFTLTISSLQPEDFATYYCQQANSFPWTFGQGTKVEIK
modifications: peptides N-terminally acetylated and C-terminally amidated
B17: CL-531237 (antibody, V domains shown)
VH: QVQLVESGGGVVQPGTSLRLSCVASGFTFSNFGIHWFRQAPGKGLEWVSLIWYDGKNKFYAESVTGRFTISRDNSKNTVYLQMSSLRAEDTAVYYCARSYYYDSGNYFDYWGQGTLVTVSS
VL: DIQMTQSPSSVSASVGDRITITCRASQGISSRLAWFQQKPGKAPNFLIYGTSSLQSGVPSRFSGSGSGTDFTLTISSLQPEDSATYYCQQANSYPWTFGQGTKVEIK
modifications: peptides N-terminally acetylated and C-terminally amidated
B18: CL-509940 (antibody, V domains shown)
VH: QVQLVESGGGVVQPGRSLRLSCAASGFTFSTYGMHWVRQAPGKGLEWVAVIWYDGSIKFYADSVKGRFTISRDDSKNTLYLQMNSLRAEDTAVYYCARDGGYSDSGRFGWFDPWGQGNLVTVSS
VL: EIVMTQSPVTLSVSPGERVTLSCRASQSVSSNLAWYQQKPGQAPRLLIYGASNRATGIPDRFSGSGSGTEFSLTVTSLQSEDFAVYYCQQYNQWRTFGQGTKVEIR
modifications: peptides N-terminally acetylated and C-terminally amidated
B19: CL-513041 (antibody, V domains shown)
VH: QEHLVESGGGVVQPGRSLRLSCAASGFTFSNSGMHWVRQAPGKGLEWVAVIWYDGSNKFYADSVRGRFTISRDNSNNTLYLQMNSLRAEDTALYYCARDRLFSGSWNWFDPWGQGTLVTVSS
VL: EIVLTQSPATLSLSPGERATLSCRASQSVSTYLAWYQQKPGQAPRLLIYDASNRATGIPARFSGSGSGTDFTLTISSLEPEDFAVYYCQQRSNWFTFGGGTKVEIK
modifications: peptides N-terminally acetylated and C-terminally amidated
B20: CL-442127 (antibody, V domains shown)
VH: QAQLVESGGGVVQPGKSLRLSCAASRFTFRNYGMHWVRQGPVKGLEWVALIWHDGSNKFYSDSVRDRFTISRDNSKNKLFLQMNSLTADDTALYYCVRSNYDGSGTYGWFGPWGQGTLVTVSS
VL: EIVLTQSPGTLSLSPGERATLSCRASQSVISNYLAWYQQKPGQAPRLLIYGASTRDIGIPDRFSGSGSGTDFTLTISRLEPEDFAVYFCHQYGSSFTFGPGTKVDFK
modifications: peptides N-terminally acetylated and C-terminally amidated
B21: CL-444906 (antibody, V domains shown)
VH: QVQLVESGGGVVQPGRSLRLSCTASGFTFSTYGMHWVRQAPGKGLEWVAIIWYDGSNKFYADSVKGRFTISRDNSKDTLYLQMNSLRAEDTAIYYCARAWDKVDDKYGMDVWGQGTTVTVSS
VL: not shown
modifications: peptides N-terminally acetylated and C-terminally amidated
B22: CL-511771 (antibody, V domains shown)
VH: QVQLVESGGGVVQPGRSLRLSCAASGFTFSNSGMHWVRQAPGKGLEWVAIIWYDGSNKYYAESMKGRFTISRDNSKNTLYLQMNSLRAEDTAVYYCARDGTTNAFDLWGQGTMVTVSP
VL: not shown
modifications: peptides N-terminally acetylated and C-terminally amidated
B23: CL-512469 (antibody, V domains shown)
VH: QMQLVESGGGVVQPGRSLTLSCEASGFTFSNYGMHWVRQAPGKGLEWVAIIWFDGSHRFYADAVEGRFTISRDNSKNTLFLQMTSLRAEDAAVYYCARVGQFSSSSWGAFDIWGQGTVVTVSS
VL: EIVLTQSPGTLSLSPGESVTLSCRASQIISNTHLAWYQQKPGQAPSLLIYGASSRATGIPDRFSGSGSGTDFTLTISRLEPEDFAVYYCQQYGRLWTFGQGTKVEIK
modifications: peptides N-terminally acetylated and C-terminally amidated

These binders were tested against PfCSP full length (Plasmodium falciparum (isolate NF54), UniProt P19597) (assay: ELISA AUC).
PfCSP full length, sequence (P19597 20-375): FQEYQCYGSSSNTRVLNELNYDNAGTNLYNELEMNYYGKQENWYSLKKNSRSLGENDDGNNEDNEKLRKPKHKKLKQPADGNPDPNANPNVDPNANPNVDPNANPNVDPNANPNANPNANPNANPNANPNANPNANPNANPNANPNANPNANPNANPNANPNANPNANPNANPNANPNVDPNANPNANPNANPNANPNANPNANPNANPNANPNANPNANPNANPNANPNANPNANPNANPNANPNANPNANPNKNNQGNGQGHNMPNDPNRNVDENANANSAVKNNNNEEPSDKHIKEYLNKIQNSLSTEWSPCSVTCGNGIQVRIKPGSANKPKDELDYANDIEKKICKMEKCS

Going from B1 to B2, the binding score rises from 1.86 to 2.09.

Going from B3 to B4, the binding score falls from 2.57 to 2.23.

Going from B5 to B6, the binding score falls from 2.5 to 2.14.

First: B7
Second: B8
The binding score of the first is lower: 2.4 for the first, 2.6 for the second.

Compared with B9, B10 is lower in binding score: 2.64 for the first, 2.23 for the second.

Going from B11 to B12, the binding score rises from 2.47 to 2.54.

First: B13
Second: B14
The binding score of the first is lower: 2.17 for the first, 2.4 for the second.

Going from B15 to B16, the binding score rises from 1.86 to 2.4.

First: B17
Second: B18
The binding score of the first is higher: 2.18 for the first, 2.09 for the second.

First: B19
Second: B20
The binding score of the first is lower: 2.13 for the first, 2.3 for the second.

Compared with B21, B22 is higher in binding score: 2.6 for the first, 2.64 for the second.

B23 showed a binding score of 1.99.
